Molecular target: condensin I tetramer lacking NCAPG (CIΔG) (Homo sapiens, UniProt O95347;Q9NTJ3;Q15003;Q15021 1-1197;1-1288;1-741;1-1401)
Assay: EMSA; 2.5 mM Mg2+; EMSA: 50 nM DNA, 20 mM HEPES pH 8, 150 mM KCl, 2.5 mM MgCl2, 10% glycerol, 1 mM DTT, on ice 20 min; 2% agarose, 0.5x TB
Settings: protein: recombinant; tags: Strep; copies: 1;1;1;1; label: 5' Cy5 on reverse strand (S2); blunt

condensin I tetramer lacking NCAPG (CIΔG), sequence (O95347 whole entry, stated change not applied, chain 1 of 4): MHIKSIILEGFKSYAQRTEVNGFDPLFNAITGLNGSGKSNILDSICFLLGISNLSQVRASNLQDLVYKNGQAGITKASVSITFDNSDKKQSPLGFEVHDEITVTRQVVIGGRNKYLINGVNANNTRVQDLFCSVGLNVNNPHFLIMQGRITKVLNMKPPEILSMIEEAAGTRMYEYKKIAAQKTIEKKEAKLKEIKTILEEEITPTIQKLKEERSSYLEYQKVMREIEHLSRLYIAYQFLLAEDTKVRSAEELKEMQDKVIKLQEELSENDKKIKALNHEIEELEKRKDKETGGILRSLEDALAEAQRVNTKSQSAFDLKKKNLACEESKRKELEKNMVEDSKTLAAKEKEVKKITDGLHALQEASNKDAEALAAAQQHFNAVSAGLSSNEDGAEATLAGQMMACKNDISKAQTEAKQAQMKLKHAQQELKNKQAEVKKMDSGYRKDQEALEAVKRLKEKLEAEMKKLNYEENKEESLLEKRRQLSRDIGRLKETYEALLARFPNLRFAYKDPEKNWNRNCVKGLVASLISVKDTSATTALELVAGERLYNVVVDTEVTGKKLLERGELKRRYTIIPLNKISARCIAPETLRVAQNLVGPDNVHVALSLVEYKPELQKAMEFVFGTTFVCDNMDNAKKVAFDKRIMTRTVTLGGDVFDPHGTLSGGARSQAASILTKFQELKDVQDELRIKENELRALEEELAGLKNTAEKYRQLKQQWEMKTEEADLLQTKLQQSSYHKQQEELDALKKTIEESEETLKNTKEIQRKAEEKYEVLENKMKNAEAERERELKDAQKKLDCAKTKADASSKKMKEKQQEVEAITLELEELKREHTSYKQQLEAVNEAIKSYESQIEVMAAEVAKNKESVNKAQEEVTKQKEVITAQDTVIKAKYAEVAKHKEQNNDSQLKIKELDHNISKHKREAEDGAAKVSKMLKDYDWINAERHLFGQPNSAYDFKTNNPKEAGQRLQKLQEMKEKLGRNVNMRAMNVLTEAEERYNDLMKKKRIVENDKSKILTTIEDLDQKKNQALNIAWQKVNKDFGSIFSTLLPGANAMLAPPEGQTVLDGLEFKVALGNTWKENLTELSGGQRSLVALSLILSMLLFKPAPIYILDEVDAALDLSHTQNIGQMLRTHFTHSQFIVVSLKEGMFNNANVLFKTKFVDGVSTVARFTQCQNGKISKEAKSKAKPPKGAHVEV
condensin I tetramer lacking NCAPG (CIΔG), sequence (Q9NTJ3 whole entry, stated change not applied, chain 2 of 4): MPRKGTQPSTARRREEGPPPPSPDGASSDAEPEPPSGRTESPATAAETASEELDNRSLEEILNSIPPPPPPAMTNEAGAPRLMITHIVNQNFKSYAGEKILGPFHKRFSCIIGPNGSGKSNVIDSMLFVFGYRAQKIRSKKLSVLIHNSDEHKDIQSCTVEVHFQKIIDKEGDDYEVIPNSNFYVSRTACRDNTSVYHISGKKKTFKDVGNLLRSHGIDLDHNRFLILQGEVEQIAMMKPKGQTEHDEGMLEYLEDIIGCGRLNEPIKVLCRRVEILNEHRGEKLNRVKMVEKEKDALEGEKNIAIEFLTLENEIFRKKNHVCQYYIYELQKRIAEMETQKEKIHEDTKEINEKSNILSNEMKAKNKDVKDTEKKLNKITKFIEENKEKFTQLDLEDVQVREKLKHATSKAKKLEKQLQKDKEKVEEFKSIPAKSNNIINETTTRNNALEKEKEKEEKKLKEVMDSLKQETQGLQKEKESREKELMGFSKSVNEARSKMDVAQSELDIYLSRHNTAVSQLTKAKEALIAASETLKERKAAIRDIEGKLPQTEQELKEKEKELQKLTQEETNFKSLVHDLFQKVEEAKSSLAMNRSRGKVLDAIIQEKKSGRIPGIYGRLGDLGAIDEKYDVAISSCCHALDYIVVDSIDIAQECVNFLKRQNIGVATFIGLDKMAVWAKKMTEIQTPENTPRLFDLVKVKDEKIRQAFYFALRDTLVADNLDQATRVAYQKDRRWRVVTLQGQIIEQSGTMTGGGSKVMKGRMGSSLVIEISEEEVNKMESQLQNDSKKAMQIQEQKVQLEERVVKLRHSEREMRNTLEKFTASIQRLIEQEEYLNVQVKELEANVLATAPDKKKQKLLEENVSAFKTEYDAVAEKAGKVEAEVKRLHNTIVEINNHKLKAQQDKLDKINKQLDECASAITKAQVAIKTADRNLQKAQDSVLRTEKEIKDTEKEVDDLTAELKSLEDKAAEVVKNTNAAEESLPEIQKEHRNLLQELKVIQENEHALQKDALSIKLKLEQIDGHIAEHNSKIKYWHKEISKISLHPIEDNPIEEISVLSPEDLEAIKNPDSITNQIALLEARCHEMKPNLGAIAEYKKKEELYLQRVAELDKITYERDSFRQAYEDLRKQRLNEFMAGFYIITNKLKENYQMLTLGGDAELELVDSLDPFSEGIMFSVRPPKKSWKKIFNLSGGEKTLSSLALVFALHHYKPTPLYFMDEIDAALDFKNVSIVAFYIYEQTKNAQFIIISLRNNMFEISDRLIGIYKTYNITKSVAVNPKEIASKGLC
condensin I tetramer lacking NCAPG (CIΔG), sequence (Q15003 whole entry, stated change not applied, chain 3 of 4): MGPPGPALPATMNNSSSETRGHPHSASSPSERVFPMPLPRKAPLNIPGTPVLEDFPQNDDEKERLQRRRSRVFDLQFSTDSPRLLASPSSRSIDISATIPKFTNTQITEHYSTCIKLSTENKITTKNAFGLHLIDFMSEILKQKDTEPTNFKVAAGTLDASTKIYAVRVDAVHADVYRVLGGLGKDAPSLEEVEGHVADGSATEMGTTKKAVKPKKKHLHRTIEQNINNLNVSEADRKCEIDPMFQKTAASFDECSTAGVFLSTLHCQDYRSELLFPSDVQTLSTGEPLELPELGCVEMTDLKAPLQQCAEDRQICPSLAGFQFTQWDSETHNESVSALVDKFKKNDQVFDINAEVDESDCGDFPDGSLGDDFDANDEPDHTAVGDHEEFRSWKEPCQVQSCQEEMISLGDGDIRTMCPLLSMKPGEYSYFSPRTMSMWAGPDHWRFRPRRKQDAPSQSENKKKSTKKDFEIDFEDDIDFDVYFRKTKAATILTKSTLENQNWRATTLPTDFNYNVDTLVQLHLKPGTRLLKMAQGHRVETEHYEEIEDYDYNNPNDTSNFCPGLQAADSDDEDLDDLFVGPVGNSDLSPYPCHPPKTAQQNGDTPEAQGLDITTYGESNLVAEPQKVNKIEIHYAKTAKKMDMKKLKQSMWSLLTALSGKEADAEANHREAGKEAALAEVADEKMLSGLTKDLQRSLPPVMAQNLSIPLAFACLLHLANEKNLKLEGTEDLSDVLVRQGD
condensin I tetramer lacking NCAPG (CIΔG), sequence (Q15021 whole entry, stated change not applied, chain 4 of 4): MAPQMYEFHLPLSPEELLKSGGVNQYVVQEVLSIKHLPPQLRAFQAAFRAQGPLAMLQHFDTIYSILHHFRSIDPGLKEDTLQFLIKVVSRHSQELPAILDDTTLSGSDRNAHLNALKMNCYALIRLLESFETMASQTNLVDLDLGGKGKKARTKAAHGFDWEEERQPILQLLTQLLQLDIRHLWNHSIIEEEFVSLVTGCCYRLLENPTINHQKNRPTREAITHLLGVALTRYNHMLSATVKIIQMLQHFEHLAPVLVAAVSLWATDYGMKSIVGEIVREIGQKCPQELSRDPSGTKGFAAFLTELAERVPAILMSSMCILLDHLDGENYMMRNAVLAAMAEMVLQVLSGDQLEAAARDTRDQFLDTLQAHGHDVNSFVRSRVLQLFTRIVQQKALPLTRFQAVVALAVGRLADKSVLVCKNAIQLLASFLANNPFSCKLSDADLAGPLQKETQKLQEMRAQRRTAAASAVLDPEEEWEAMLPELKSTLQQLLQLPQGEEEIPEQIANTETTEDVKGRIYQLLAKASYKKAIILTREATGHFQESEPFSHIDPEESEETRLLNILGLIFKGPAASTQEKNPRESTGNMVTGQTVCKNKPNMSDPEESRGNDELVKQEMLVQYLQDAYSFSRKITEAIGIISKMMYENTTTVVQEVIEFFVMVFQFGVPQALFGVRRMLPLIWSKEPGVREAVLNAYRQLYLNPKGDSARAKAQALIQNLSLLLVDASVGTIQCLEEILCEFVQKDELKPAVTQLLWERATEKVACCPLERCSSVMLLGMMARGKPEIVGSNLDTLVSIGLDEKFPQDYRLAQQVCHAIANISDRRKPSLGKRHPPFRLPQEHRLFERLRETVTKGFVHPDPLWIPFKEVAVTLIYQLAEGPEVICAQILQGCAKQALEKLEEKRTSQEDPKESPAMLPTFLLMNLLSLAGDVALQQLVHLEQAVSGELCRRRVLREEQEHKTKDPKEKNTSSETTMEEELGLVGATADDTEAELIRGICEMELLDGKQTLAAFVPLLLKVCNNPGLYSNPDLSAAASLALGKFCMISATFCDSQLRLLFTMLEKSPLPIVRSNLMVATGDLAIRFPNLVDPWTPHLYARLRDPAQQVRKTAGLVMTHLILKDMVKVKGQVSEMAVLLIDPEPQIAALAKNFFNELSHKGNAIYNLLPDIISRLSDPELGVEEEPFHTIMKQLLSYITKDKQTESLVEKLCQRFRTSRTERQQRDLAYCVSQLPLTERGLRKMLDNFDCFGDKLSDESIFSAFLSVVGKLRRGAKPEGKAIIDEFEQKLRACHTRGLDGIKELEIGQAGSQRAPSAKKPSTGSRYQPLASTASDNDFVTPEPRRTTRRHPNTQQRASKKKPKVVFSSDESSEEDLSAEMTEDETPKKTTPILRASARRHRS

B1: Cy5 50 bp dsDNA (dsDNA)
DNA 1: GGTGTGACAGGGTGTGACAGGGTGTGACAGGGTGTGACAGGGTGTGACAG
DNA 2: CTGTCACACCCTGTCACACCCTGTCACACCCTGTCACACCCTGTCACACC
  binding signal: ~4 fold lower affinity than CI
